Target: the molecule itself
Assay: crystal structure; CsiD at 13 mg/mL, sitting drop vapour diffusion, 18 °C; apo and with glutarate, succinate or N-oxalylglycine; symmetry P42(1)2, two copies in the asymmetric unit, tetramer generated by crystallographic symmetry

B1: CsiD (carbon starvation induced protein D), glutarate hydroxylase (enzyme, Escherichia coli, UniProt P76621 1-325, looked up)
chain: MNALTAVQNNAVDSGQDYSGFTLTPSAQSPRLLELTFTEQTTKQFLEQVAEWPVQALEYKSFLRFRVAKILDDLCANQLQPLLLKTLLNRAEGALLINAVGVDDVKQADEMVKLATAVAHLIGRSNFDAMSGQYYARFVVKNVDNSDSYLRQPHRVMELHNDGTYVEEITDYVLMMKIDEQNMQGGNSLLLHLDDWEHLDNYFRHPLARRPMRFAAPPSKNVSKDVFHPVFDVDQQGRPVMRYIDQFVQPKDFEEGVWLSELSDAIETSKGILSVPVPVGKFLLINNLFWLHGRDRFTPHPDLRRELMRQRGYFAYASNHYQTHQ
notes: CsiD of Escherichia coli, ORF amplified from E. coli BW25113 and inserted into pET28a; crystals were apo or held glutarate, succinate or N-oxalylglycine; also called glutarate-2-hydroxylase; G-2-H; source: E. coli BL21 (DE3), purified (Ni-NTA)
stoichiometry N: 4

— article PMC6265302, “Widespread bacterial lysine degradation proceeding via glutarate and L-2-hydroxyglutarate” (Nature Communications, 2018)
